{"source": "paper PMC4183148", "key": {"[1]": {"biological_target": "PKM2 (pyruvate kinase, M2 isoform), endogenous (human (endogenous in HEK293T, H1299, U87)) (UniProt P14618)", "test": "SEC"}, "[2]": {"biological_target": "PKM2 (pyruvate kinase, M2 isoform), endogenous (human (endogenous in HEK293T, H1299, U87)) (UniProt P14618)", "test": "SEC", "remark": "listed apart in the source"}}, "note": "Several values for one entry are separate records, joined by “and”; a condition that tells them apart may be missing. Identical values can stand only once. Like-named read-outs stand apart in the source and are kept apart here."}
{"substance": "PKM2 (pyruvate kinase, M2 isoform), endogenous, P14618 1-531 (natural protein; other documents disagree on this pair)", "values": [{"measurement": "percent dimeric form", "setting": "[1]", "value": "66.5% and 56%"}, {"measurement": "percent tetrameric form", "setting": "[1]", "value": "26.2% and 43.8%"}, {"measurement": "percent dimeric form", "setting": "[2]", "value": 78.9, "unit": "%"}, {"measurement": "percent tetrameric form", "setting": "[2]", "value": 20.1, "unit": "%"}]}
